Experimental data as given in the supplement of paper PMC10567573.

B1: FCHSD1 (parent)
chain: LQEPGVFSPTPPQQFQPAGTDQVC
B2: MMP1 (parent)
chain: FVRGDHRDNSPFDGPGGNLAHAFQ

Variants of: B1
Assay: protein stability index of a GFP-peptide fusion (GPS, HEK-293T) (PSI 1-6); higher = more stable
Details: c terminus: a fixed tail appended
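Further: lentivirally expressed fusions sorted by FACS into six bins by GFP to DsRed ratio, PSI derived from sequencing read proportions per bin multiplied by bin number.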

Protein stability index: each site, then its substitutions
P11: T 4.31; V 4.43; W 3.41; Y 3.65
P12: C 4.02; D 5.07; E 4.82; F 3.48; G 4.5; H 4.23; I 4.11; K 4.05; L 3.96; M 4.09; N 4.33; Q 4.45; R 4.33; S 4.46; V 3.69; W 3.5; Y 3.66
Q13: C 4.04; D 4.55; E 3.75; F 3.8; G 3.89; I 3.6; K 3.78; M 3.96; N 4.11; R 4.07; S 4.16; V 4.26; W 3.17; Y 3.74
Q14: G 2.86; V 4.1
F15: C 4.17; G 4.68
Q16: L 3.93
A18: W 2.99
T20: L 3.61
Q22: W 2.94

Variants of: B2
Assay: as above
Details: c terminus: a fixed tail appended

Protein stability index of substitutions, site by site:
G17: P 1.37; M 3.38; F 2.18; D 1.82; I 2.43; S 2.3; K 1.92; E 1.6; Q 1.95; H 1.9; L 2.29; N 2.48
D8: Y 3.24; L 2.25; G 1.84; R 1.62; K 2.78; Q 3.21; P 2.12; A 1.63; S 2.08; W 3.09; H 2.29; V 2.25; N 2.68; F 4.46
G14: H 1.39; T 1.76; R 1.6; E 2.06; C 2.99; L 2.44; A 2.12; S 1.89; W 1.69; I 2.51; K 1.77; D 2.25
D5: A 2.15; P 2.27; K 3.58; V 1.81; I 1.66; F 2.45; E 1.5; R 3.46
H21: R 1.33; Q 1.62; N 2.15; L 1.57; T 2.1; C 2.53; F 2.31; S 2.2; A 2.77; D 2.15; Y 2.91
Q24: V 2.39; Y 3.94; C 1.72; L 1.93; R 1.63; E 3.81; M 2.73; T 3.41; K 1.6; F 2.78
G4: W 1.94; H 2.26; P 1.73; C 2.67; F 2.06; Q 2.42; T 2.52; R 1.56; I 1.64; V 1.94; Y 2.09; K 1.57; S 2.41; L 1.68
V2: N 3.53; A 1.66; H 2.37; E 3.97; W 2.25; T 3.07; G 3.03; C 1.63; K 3.1; Q 2.75; M 3.03; R 3.48; I 1.92; Y 3.15
N9: V 1.87; Y 2.58; I 3.22; A 2.53; E 2.15; D 1.8; H 4.14; G 1.38; P 2.4
A20: G 1.92; Q 1.69; L 2.49; P 1.74; D 1.74; M 1.88; E 1.89; K 2.56; Y 1.29; H 1.44; N 1.76; R 1.43
F23: N 1.73; E 2.38; P 2.63; L 1.89; D 1.9; K 2.45; I 2.33; R 2.03; H 2.08; T 1.56; W 2.74; V 1.99
R3: Y 1.93; N 2.34; L 2.13; A 1.63; C 3.82; S 1.99; D 1.73; G 1.3; K 1.45; Q 1.71; I 2.11; M 1.57; H 1.85; V 2.37; T 2.13; E 2.73
L19: D 2.35; R 1.66; V 3.29; F 2; P 1.49; G 2.63; C 1.96; I 1.95; T 2.08; K 2.25; Y 1.64; N 1.73; E 1.99; Q 1.51
H6: G 2.26; A 2.42; K 2.57; T 1.58; I 1.55; N 1.33; L 2.64; C 2.02; M 2.16; D 2.5
P15: N 2.11; E 2.37; I 1.72; M 2.72; S 4.22; T 1.38; Y 2.52; F 2.1; Q 1.64; H 1.79; L 1.95; A 1.53
D13: G 2.6; R 1.48; E 2.57; H 3.02; P 3.31; T 2.27; M 1.03; A 1.37; S 2.56; N 1.77; K 1.59; I 1.63; L 1.47; Y 3.03
A22: G 1.58; Y 2.34; L 1.74; N 1.75; P 3.37; V 1.53; S 1.91; T 2.31; R 2.58; Q 1.46; E 1.38; I 2.06
F1: T 3.78; Q 4.01; M 3.32; I 2.82; D 4.41; G 3.33; H 3.28; A 3.67; C 2.64; E 3.97; S 3.33; P 3.59; V 2.83; W 2.48
R7: D 1.56; Q 2.55; C 1.82; A 2.02; N 1.7; H 2.91; G 1.26; I 2.77; V 2.04; L 3.54; E 1.91; K 1.68; T 2.18; P 2.8; F 2.83
P11: G 2.89; A 1.81; Q 2.02; C 2.61; H 1.5; Y 2.04; T 1.8; S 2.91; K 1.78; W 1.84; M 1.6
S10: H 1.51; M 2.11; R 2.03; F 2.42; E 1.53; I 1.71; V 1.42; A 2.32; C 1.83; Y 1.71; P 2.84; Q 1.6
F12: H 1.99; D 2.3; A 1.91; W 3.55; C 2; N 1.83; S 1.95; V 1.94; G 2.24; R 1.84; Y 2.89
N18: F 4.34; S 2.18; I 1.01; P 2.17; Y 1.7; K 2.5; Q 2.27; M 1.99; D 1.5; A 2.74; E 2.15; C 1.5
G16: Y 2.73; L 2.81; P 1.75; T 2.32; D 2.29; N 1.69; C 2.63; M 1.79; A 1.34; W 3.43
